No end group written: not given here.
Legend:
PAK3(h) = PAK3(h) (Homo sapiens, UniProt O75914); assay: Kinase Profiling Assay; format: biochemical; conditions: peptide 100 μM
Summary of the method: (§1)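 Radiometric filter-binding format: cationic substrate takes up labeled phosphate from ATP unless the inhibitor peptide blocks the kinase. Substrate bound to an anionic filter, scintillation-counted, normalized to 100% activity control. Duplicates; part of a 266-kinase selectivity panel for MK2 peptides.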

HIPK3(h) = biological target: T1, HIPK3(h) (Homo sapiens, UniProt Q9H422); assay: Kinase Profiling Assay; format: biochemical; conditions: peptide 100 μM
T1 construct: purchased Millipore
Summary of the method: as §1

EGFR(T790M)(h) = EGFR(T790M)(h) (Homo sapiens, UniProt P00533, T790M); assay: Kinase Profiling Assay; format: biochemical; conditions: peptide 100 μM
Summary of the method: as §1

PASK(h) = PASK(h) (Homo sapiens, UniProt Q96RG2); assay: Kinase Profiling Assay; format: biochemical; conditions: peptide 100 μM
Summary of the method: as §1

Abl(M351T)(h) = Abl(M351T)(h) (Homo sapiens, UniProt P00519, M351T); assay: Kinase Profiling Assay; format: biochemical; conditions: peptide 100 μM
Summary of the method: as §1

NEK6(h) = biological target: T2, NEK6(h) (Homo sapiens, UniProt Q9HC98); assay: Kinase Profiling Assay; format: biochemical; conditions: peptide 100 μM
T2 construct: purchased Millipore
Summary of the method: as §1

Aurora-A(h) = biological target: T3, Aurora-A(h) (Homo sapiens, UniProt O14965); assay: Kinase Profiling Assay; format: biochemical; conditions: peptide 100 μM
T3 sequence (O14965 1-403): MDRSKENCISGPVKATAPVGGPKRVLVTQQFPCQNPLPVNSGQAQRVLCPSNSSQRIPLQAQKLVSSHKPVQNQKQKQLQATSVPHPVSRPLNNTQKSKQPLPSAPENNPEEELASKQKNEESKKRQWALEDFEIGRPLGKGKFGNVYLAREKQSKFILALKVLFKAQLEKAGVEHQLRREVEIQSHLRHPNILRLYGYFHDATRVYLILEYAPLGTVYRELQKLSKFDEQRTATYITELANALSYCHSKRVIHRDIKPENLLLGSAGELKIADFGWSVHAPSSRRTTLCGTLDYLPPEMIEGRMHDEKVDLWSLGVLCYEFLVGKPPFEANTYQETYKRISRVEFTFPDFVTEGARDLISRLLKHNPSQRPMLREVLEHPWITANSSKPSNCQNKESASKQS
Summary of the method: as §1

MKK6(h) = biological target: T4, MKK6(h) (Homo sapiens, UniProt P52564); assay: Kinase Profiling Assay; format: biochemical; conditions: peptide 100 μM
T4 construct: purchased Millipore
T4 sequence (P52564 1-334): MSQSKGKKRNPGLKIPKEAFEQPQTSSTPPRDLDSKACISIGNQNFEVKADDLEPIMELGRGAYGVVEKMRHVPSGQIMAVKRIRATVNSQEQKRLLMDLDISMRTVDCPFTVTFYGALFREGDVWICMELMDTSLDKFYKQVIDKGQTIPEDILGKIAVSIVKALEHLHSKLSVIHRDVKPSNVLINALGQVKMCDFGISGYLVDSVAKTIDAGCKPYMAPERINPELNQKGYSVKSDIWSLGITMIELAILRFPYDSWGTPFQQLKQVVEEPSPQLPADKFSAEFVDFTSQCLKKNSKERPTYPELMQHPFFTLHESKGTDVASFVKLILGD
Summary of the method: as §1

EGFR(L858R)(h) = EGFR(L858R)(h) (Homo sapiens, UniProt P00533, L858R); assay: Kinase Profiling Assay; format: biochemical; conditions: peptide 100 μM
Summary of the method: as §1

PKA(h) = PKA(h) (Homo sapiens, UniProt P17612); assay: Kinase Profiling Assay; format: biochemical; conditions: peptide 100 μM
Summary of the method: as §1

Tie2(R849W)(h) = Tie2(R849W)(h) (Homo sapiens, UniProt Q02763, R849W); assay: Kinase Profiling Assay; format: biochemical; conditions: peptide 100 μM
Summary of the method: as §1

CK2α2(h) = CK2α2(h) (Homo sapiens, UniProt P19784); assay: Kinase Profiling Assay; format: biochemical; conditions: peptide 100 μM
Summary of the method: as §1

[1] = tested on: human fetal lung fibroblasts (IMR-90); assay: TGF-β-mediated fibronectin expression; format: cell-based; conditions: pre-treated 1 h, TGF-β1 (2 ng/ml) 72 h, conditioned media
Procedure: Fibronection was measured as secreted fragments in the conditioned media. Equal amounts (14 μg) of total proteins from the conditioned media were loaded in each lane.

[2] = tested on: normal human fetal lung fibroblasts (IMR-90); assay: TGF-β-induced myofibroblast activation (α-SMA immunoblot); format: cell-based; conditions: pre-treated 1 h, TGF-β1 (2 ng/ml) 48 h
Excerpt: Cell lysates were immunoblotted against antibodies for α-SMA (a marker for myofibroblast activation) and GAPDH (loading control).

[3] = tested on: bleomycin-induced lung fibrosis in C57BL/6 mice; assay: Bleomycin mouse model of pulmonary fibrosis (IPF prevention model); format: in vivo; conditions: for collagen levels in the lung (Masson's blue trichrome), dose-response: 25, 50 or 75 μg/kg daily IP, day 7-21; for collagen accumulation in the lungs (Masson's Trichrome staining) / development of fibrotic loci formation (H&E staining): daily day 7-21 post bleomycin; for total collagen deposition (from hydroxyproline) vs bleomycin control: post-inflammatory/pre-fibrotic stage
Procedure: A mouse model of pulmonary fibrosis was generated by administering 0.025 U of bleomycin/PBS intratracheally to C57BL/6 mice. […] At 21 day post bleomycin delivery (for prevention model) or 28 post bleomycin delivery (for treatment model), groups of mice were sacrificed with a sodium pentobarbital injection (120 mg/kg) and the chest cavity was opened. The right mainstem bronchus was ligated and the right lung was removed. The trachea was cannulated and the left lung was perfused with 4% formaldehyde at 21 cm H2O pressure. The tissue blocks then were embedded in paraffin, and […] sections were prepared for staining. Sections from each animal were stained with hematoxylin and eosin (H&E) to visualize cells or with Masson's Trichrome staining to highlight collagen deposition. […] Stained sections were mounted onto a labeled glass slide with organic mounting medium.
Briefly, fibrotic loci in the lungs of the mice were induced by delivering intratracheally about 0.025 U of bleomycin (dissolved in PBS) to C57BL/6 mice. […] Briefly, mice were sacrificed with a sodium pentobarbital injection (120 mg/kg) and the chest cavity was opened. The right mainstem bronchus was ligated and the right lung was removed. The trachea was cannulated and the left lung was perfused with 4% formaldehyde at 21 cm H2O pressure. The tissue blocks then were embedded in paraffin, and […] sections were prepared, and stained with hematoxylin and eosin (H&E; for pathological examination) or Masson's Trichrome (for collagen staining)
Next, total collagen levels in the lungs of the bleomycin-injured mice (FIG. 12) were analyzed quantitatively by computing a constant conversion factor (7.5) for collagen from hydroxyproline concentrations (Neuman R. and Logan M, J Biol Chem., 186(2):549-56, 1950, incorporated by reference).
Next, the effect of increasing doses of MK2 peptide inhibitors on collagen deposition was examined in vivo using the bleomycin mouse model of idiopathic pulmonary fibrosis (prevention model). Briefly, C57-BL/6 mice were subjected to bleomycin injury at day 0.

T2 sequence (Q9HC98 whole entry): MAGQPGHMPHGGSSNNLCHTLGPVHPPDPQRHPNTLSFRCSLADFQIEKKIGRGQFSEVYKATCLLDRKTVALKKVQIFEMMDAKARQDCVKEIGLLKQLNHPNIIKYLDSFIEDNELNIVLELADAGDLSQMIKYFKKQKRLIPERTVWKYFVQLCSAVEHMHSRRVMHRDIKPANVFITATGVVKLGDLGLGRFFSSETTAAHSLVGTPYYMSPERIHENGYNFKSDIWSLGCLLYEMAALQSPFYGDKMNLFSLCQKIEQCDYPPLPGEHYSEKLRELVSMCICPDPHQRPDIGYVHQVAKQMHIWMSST
PASK(h), sequence (Q96RG2 whole entry): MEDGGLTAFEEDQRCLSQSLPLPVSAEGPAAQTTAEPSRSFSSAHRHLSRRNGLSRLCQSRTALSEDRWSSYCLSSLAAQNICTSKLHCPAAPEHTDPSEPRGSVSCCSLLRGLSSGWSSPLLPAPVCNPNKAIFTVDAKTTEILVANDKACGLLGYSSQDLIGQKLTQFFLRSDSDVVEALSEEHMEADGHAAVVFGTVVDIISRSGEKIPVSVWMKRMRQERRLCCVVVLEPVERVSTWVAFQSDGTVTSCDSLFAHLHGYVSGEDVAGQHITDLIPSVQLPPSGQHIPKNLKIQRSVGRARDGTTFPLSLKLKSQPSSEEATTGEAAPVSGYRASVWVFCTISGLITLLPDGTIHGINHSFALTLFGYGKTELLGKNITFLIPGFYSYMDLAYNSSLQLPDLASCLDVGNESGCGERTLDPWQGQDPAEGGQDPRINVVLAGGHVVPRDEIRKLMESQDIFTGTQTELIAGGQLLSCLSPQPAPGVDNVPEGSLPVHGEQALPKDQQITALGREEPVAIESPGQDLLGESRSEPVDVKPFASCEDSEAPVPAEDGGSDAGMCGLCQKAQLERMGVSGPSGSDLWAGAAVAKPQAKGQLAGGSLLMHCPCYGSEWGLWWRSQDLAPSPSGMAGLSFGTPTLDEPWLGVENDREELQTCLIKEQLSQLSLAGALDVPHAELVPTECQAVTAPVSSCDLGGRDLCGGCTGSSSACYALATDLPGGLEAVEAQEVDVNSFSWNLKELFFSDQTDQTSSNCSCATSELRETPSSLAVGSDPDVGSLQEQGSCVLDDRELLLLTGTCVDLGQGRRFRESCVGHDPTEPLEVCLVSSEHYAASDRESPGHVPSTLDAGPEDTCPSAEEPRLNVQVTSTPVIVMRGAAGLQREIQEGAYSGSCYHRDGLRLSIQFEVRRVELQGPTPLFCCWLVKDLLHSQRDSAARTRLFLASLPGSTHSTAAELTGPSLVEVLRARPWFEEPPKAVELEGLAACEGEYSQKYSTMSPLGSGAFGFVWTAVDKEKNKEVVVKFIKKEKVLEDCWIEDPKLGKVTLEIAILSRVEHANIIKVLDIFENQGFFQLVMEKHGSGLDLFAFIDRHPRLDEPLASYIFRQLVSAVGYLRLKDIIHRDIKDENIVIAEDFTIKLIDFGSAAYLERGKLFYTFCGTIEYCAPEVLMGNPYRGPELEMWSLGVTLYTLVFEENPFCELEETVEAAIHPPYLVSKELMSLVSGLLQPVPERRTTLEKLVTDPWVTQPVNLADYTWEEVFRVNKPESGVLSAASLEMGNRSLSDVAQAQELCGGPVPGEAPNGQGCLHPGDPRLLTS
T1 sequence (Q9H422 whole entry): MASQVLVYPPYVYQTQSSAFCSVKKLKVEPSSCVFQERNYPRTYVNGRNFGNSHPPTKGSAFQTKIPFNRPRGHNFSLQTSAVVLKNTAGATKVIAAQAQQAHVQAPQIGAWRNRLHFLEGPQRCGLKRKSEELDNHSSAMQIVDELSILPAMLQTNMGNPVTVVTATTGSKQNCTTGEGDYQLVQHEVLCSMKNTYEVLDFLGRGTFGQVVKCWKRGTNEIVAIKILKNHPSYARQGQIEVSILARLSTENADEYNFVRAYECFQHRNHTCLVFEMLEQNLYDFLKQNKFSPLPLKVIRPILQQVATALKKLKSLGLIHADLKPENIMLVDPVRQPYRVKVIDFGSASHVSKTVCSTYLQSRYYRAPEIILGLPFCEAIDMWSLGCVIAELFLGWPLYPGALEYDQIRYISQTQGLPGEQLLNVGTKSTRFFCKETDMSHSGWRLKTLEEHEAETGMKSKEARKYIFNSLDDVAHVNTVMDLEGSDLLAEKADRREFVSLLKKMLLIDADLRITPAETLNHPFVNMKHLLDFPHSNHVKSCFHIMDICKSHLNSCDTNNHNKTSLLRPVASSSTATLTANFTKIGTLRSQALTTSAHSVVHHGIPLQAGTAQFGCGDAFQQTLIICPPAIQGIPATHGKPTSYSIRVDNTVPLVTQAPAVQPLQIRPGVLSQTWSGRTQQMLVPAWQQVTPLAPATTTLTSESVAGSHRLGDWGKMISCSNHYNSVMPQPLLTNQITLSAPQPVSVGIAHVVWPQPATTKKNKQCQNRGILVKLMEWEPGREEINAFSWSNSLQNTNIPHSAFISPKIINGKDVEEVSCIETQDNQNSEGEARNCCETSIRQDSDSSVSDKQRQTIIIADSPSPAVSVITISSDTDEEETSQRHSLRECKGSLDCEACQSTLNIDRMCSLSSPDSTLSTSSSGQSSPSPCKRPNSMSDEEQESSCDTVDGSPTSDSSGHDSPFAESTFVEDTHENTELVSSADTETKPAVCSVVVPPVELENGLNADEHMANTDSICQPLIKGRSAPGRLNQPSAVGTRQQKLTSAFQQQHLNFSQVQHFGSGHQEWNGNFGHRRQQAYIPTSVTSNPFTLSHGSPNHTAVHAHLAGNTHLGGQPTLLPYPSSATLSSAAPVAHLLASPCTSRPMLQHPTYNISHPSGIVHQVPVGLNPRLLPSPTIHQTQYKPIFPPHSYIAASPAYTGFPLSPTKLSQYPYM
Tie2(R849W)(h), sequence (Q02763 23-1124 R849W): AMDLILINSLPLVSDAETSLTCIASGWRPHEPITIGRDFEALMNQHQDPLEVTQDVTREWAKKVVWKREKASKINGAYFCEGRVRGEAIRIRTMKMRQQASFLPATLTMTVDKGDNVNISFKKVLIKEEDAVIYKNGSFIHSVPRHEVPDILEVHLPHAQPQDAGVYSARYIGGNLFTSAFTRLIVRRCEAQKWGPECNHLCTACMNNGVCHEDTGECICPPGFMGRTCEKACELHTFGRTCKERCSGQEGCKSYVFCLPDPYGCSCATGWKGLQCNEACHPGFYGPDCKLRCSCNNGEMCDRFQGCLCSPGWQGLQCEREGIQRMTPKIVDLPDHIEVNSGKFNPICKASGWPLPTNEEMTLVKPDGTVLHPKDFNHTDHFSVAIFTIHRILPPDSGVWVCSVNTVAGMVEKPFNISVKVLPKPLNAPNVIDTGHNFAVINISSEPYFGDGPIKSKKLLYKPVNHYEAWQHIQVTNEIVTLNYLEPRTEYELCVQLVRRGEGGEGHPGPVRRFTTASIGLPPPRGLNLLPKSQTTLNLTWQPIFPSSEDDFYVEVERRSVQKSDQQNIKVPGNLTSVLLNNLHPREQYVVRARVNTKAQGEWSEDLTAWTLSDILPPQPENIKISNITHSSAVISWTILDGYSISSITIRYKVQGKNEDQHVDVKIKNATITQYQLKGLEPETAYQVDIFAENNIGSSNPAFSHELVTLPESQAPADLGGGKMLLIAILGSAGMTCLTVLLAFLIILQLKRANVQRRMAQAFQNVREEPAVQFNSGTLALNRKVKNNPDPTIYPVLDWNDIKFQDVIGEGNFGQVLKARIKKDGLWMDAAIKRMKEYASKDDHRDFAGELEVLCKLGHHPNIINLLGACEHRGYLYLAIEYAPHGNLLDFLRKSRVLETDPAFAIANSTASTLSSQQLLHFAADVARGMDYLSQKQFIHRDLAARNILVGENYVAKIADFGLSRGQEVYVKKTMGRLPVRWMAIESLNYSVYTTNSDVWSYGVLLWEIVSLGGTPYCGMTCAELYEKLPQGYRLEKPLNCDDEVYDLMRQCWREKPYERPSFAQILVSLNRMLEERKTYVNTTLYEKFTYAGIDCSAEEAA
CK2α2(h), sequence (P19784 whole entry): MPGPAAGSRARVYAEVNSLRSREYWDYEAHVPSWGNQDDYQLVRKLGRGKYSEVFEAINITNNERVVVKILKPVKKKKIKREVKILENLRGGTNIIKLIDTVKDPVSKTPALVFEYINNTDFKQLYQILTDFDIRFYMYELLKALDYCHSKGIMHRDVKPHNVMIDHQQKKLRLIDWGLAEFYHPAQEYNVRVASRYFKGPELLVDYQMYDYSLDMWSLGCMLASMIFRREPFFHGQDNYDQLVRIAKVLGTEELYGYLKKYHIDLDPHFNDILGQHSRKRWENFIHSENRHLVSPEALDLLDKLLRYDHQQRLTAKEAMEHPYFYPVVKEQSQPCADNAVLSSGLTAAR
PAK3(h), sequence (O75914 whole entry): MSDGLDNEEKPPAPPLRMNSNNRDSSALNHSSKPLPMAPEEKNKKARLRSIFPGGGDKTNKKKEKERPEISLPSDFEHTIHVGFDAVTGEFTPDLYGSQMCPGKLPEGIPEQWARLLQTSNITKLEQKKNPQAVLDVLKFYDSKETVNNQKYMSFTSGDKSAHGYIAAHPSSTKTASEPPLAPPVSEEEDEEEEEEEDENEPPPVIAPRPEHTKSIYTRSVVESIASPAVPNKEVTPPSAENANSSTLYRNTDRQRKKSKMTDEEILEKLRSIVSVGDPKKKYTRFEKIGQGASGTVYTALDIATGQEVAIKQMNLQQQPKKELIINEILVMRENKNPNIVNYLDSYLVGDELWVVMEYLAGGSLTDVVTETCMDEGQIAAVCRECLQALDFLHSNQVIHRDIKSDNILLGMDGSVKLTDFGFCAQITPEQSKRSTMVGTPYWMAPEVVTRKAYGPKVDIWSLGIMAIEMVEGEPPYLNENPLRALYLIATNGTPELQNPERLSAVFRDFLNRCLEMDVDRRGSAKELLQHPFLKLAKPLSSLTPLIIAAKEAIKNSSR

Row | Sequence | % activity (PAK3(h)) [%] | % activity (HIPK3(h)) [%] | % activity (EGFR(T790M)(h)) [%] | % activity (PASK(h)) [%] | % activity (Abl(M351T)(h)) [%] | % activity (NEK6(h)) [%] | % activity (Aurora-A(h)) [%] | % activity (MKK6(h)) [%] | % activity (EGFR(L858R)(h)) [%] | % activity (PKA(h)) [%] | % activity (Tie2(R849W)(h)) [%] | % activity (CK2α2(h)) [%] | protein level of fibronectin [1] | protein level of α-smooth muscle actin (α-SMA) [2] | collagen levels in the lung (Masson's blue trichrome), dose-response [3] | also measured
1 | FAKLAARLYRKALARQLGVAA [MMI-0300] | 140 | 93 | 100 | 29 | 90 | 82 | 92 | 48 |  |  |  |  |  |  |  | 
2 | HRRIKAWLKKIKALARQLGVAA (Mammal) [MMI-0500] |  | 85 | 70 | 9 | 61 | 49 | 110 | 18 | 26 | 118 |  |  |  |  |  | 
3 | KAFAKLAARLYRKALARQLGVAA [MMI-0400] |  |  |  | 28 |  | 85 |  | 44 | 52 |  | 108 | 96 |  |  |  | 
4 | YARAAARQARAKALARQLGVAA [MMI-0100] |  |  |  | 81 |  |  |  |  | 76 |  |  |  | decreases | decreases | a decrease in collagen levels | collagen accumulation in the lungs (Masson's Trichrome staining) ([3]; intraperitoneally): reduced collagen accumulation; development of fibrotic loci formation (H&E staining) ([3]; intraperitoneally): significantly reduced; total collagen deposition (from hydroxyproline) vs bleomycin control ([3]; nebulized): significantly decreased; total collagen deposition (from hydroxyproline) vs bleomycin control ([3]; systemic (IP)): significantly decreased; collagen accumulation in the lungs (Masson's Trichrome staining) ([3]; via nebulization): reduced collagen accumulation; development of fibrotic loci formation (H&E staining) ([3]; via nebulization): significantly reduced
5 | YARAAARQARAKALNRQLGVA (Mammal) [MMI-0200] | 50 |  |  | 60 |  | 98 |  | 98 | 120 | 110 | 89 | 88 | no changes | no changes | did not reduce, but rather increased | 

Source: patent US20150258192A1, “COMPOSITIONS AND METHODS FOR PREVENTING OR TREATING CHRONIC LUNG ALLOGRAFT DYSFUNCTION (CLAD) AND IDIOPATHIC PULMONARY FIBROSIS (IPF)” (priority 2014, published 2015)
